B1: CPEB3 Ribozyme (parent)
chain: GGGGGCCACAGCAGAAGCGUUCACGUCGCGGCCCCUGUCAGAUUCUGGUGAAUCUGCGAAUUCUGCUGU

Variants of: B1
Assay: self-cleavage, relative activity (ratio to wild type); higher = more cleavage; co-transcriptional

Row | Variant | self-cleavage
1 | G5C U38A | 0.145
2 | G5C U38C | 0.12
3 | G5C U43A | 0.183
4 | G5C U44A | 0.24
5 | G5C U44G | 0.203
6 | G5C U46G | 0.235
7 | G5C U49A | 0.287
8 | G5C U49C | 0.282
9 | G5C U49G | 0.282
10 | G5C U53A | 0.175
11 | G5C U53C | 0.151
12 | G5C U53G | 0.212
13 | G5C U55C | 0.175
14 | G5C U55G | 0.115
15 | G5C U62C | 0.141
16 | G5C U62G | 0.179
17 | G5C U69C | 0.568
18 | G5U | 0.316
19 | G5U A8U | 0.151
20 | G5U A13C | 0.0841
21 | G5U A15C | 0.0532

Row | Variant | self-cleavage
22 | G5U A15G | 0.19
23 | G5U A15U | 0.092
24 | G5U A16C | 0.042
25 | G5U A40G | 0.171
26 | G5U A40U | 0.132
27 | G5U A52C | 0.176
28 | G5U A59C | 0.181
29 | G5U A59G | 0.139
30 | G5U C6A | 0.0825
31 | G5U C6G | 0.115
32 | G5U C9G | 0.772
33 | G5U C12A | 0.112
34 | G5U C12G | 0.1
35 | G5U C18U | 0.063
36 | G5U C22A | 0.0283
37 | G5U C22U | 0.0607
38 | G5U C24A | 0.105
39 | G5U C27A | 0.116
40 | G5U C29U | 0.103
41 | G5U C33A | 0.0802
42 | G5U C33G | 0.0433

Row | Variant | self-cleavage
43 | G5U C33U | 0.121
44 | G5U C34U | 0.111
45 | G5U C35A | 0.0833
46 | G5U C35U | 0.0952
47 | G5U C39A | 0.0897
48 | G5U C39G | 0.0932
49 | G5U C45G | 0.149
50 | G5U C54A | 0.104
51 | G5U C54G | 0.106
52 | G5U C57G | 0.115
53 | G5U C57U | 0.0743
54 | G5U G11A | 0.185
55 | G5U G11C | 0.0768
56 | G5U G14C | 0.0568
57 | G5U G19A | 0.06
58 | G5U G30A | 0.0886
59 | G5U G31U | 0.0958
60 | G5U G37A | 0.11
61 | G5U G41A | 0.12
62 | G5U G48A | 0.39
63 | G5U G50A | 0.309

Row | Variant | self-cleavage
64 | G5U G56A | 0.137
65 | G5U G56C | 0.163
66 | G5U G56U | 0.104
67 | G5U G58A | 0.172
68 | G5U G58C | 0.2
69 | G5U G58U | 0.37
70 | G5U G65C | 0.205
71 | G5U U21G | 0.0935
72 | G5U U26C | 0.155
73 | G5U U36C | 0.21
74 | G5U U38A | 0.235
75 | G5U U38G | 0.0473
76 | G5U U43A | 0.111
77 | G5U U43C | 0.133
78 | G5U U49G | 0.171
79 | G5U U53A | 0.116
80 | G5U U53C | 0.0878
81 | G5U U55C | 0.147
82 | G5U U61G | 0.0827
83 | G5U U62C | 0.143
